Results: US20260226173A1, “COMPOSITIONS INCLUDING ANTI-WT-1 ANTIBODIES & ANTIGEN BINDING FRAGMENTS AND USES THEREOF” (Memorial Sloan-Kettering Cancer Center, priority 2023, published 2026)

How the values were obtained:
[1] = molecular target: WT1 RMF (…)/HLA-A2 complex on cells (human); test: flow cytometry, primary AML cells (FIG. 18 shows sample 92C per paragraph 796) stained with PE-conjugated isotype control mouse IgG at 3 µg/ml; unstained 124
[2] = molecular target: HLA-A2 with endogenous peptides on HLA-A2-positive cells not pulsed with peptide (SKLY-16, normal cells of HLA-A2+ donors) (human); test: flow cytometry, PBMCs of an HLA-A2 positive healthy donor, CD33 against isotype control
[3] = molecular target: HLA-A2 with endogenous peptides on HLA-A2-positive cells not pulsed with peptide (SKLY-16, normal cells of HLA-A2+ donors) (human); test: flow cytometry, PBMCs of an HLA-A2 positive healthy donor, CD19 against isotype control
[4] = molecular target: HLA-A2 with endogenous peptides on HLA-A2-positive cells not pulsed with peptide (SKLY-16, normal cells of HLA-A2+ donors) (human); test: flow cytometry, whole blood of an HLA-A2 positive healthy donor, neutrophil gate, CD15 against isotype control

Substance	MFI [1]	% of PBMCs CD33+ and isotype+ (upper right quadrant) [2]	% of PBMCs CD33- and isotype+ (lower right quadrant) [2]	% of PBMCs CD19+ and isotype+ (upper right quadrant) [3]	% of PBMCs CD19- and isotype+ (lower right quadrant) [3]	% of gated neutrophils CD15+ and isotype+ (upper right quadrant) [4]	% of gated neutrophils CD15- and isotype+ (lower right quadrant) [4]
Iso. (antibody)	372						
Isotype (antibody)		0.03%	1.07%	0.91%	0.05%	0.04%	0.02%
